For test [1], the system named is SKOV3_BCMA cells. As to conditions: 72 hour time point; T cells expressing CAR, membrane tethering component and signal dampening component.
Method: FIG. 13—A: Results of an Incucyte assay comparing killing of BCMA+ SKOV3 target cells over time in the presence of varying concentrations of rapamycin by T cells expressing an anti-BCMA CAR alone (Left-hand chart) or expressing an anti-BCMA CAR in combination with a membrane tethering component (v5-CD22(2Ig)-TM-FRB) and a signal dampening component (FKBP12-CD148).
B: A summary of the data presented in A at the 72 hour time-point.
SKOV3 cells, were engineered to be BCMA positive for use as target cells. Primary human T-cells from 2 donors were transduced with two CAR constructs: (i) “Classical” anti-BCMA CAR; (ii) the tri-cistronic “dampenable” BCMA CAR system described above, Non-transduced T-cells and T-cells transduced with the different CAR constructs were challenged 8:1 with SKOV3_BCMA cells in the presence of different concentrations of rapamycin and target cell killing was investigated using an incucyte assay.
The target in test [2] is streptavidin (Streptomyces avidinii, UniProt P22629). As to conditions: biotin mimicking peptides binding streptavidin; read-out: affinity; cited from earlier work.
For test [3], the target named is membrane tethering component (v5-CD22(2Ig)-TM-FRB) (human). The test is described as follows: cell-based or functional assay.
Chain of membrane tethering component (v5-CD22(2Ig)-TM-FRB) (human) (chain, as listed by the source): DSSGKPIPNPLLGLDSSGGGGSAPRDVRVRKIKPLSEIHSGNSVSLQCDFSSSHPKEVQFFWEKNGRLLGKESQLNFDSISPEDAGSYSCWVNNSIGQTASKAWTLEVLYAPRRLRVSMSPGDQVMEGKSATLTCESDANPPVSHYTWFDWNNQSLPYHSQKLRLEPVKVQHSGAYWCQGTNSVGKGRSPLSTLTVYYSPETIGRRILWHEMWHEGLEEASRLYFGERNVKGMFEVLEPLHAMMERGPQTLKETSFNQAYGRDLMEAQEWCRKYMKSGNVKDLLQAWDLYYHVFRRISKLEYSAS

Chain of streptavidin (P22629 37-163): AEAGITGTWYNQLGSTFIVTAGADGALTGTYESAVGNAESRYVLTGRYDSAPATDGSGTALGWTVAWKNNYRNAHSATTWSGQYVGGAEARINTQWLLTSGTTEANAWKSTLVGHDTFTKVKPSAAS

With `CO[C@H]1C[C@@H]2CC[C@@H](C)[C@@](O)(O2)C(=O)C(=O)N2CCCC[C@H]2C(=O)O[C@H]([C@H](C)C[C@@H]2CC[C@@H](O)[C@H](OC)C2)CC(=O)[C@H](C)/C=C(\C)[C@@H](O)[C@@H](OC)C(=O)[C@H](C)C[C@H](C)/C=C/C=C/C=C/1C` [Rapamycin, rapamycin], in test [1], the “tested concentrations of Rapamycin at which killing of target cells was significantly inhibited” value is reported as “above 0.82 μM”.

Turning to “Biotin mimicking peptide, sequence CHPQGPPC (SEQ ID NO: 41) (Biotin mimicking peptide, ccstreptag)”, in test [2], the Kd is 230 nM.

Regarding “Biotin mimicking peptide, sequence DVEAWLDERVPLVET (SEQ ID NO: 36) (Biotin mimicking peptide, long nanotag)”, the Kd in test [2] was 3.6 nM.

With “Biotin mimicking peptide, sequence DVEAWLGAR (SEQ ID NO: 37) (Biotin mimicking peptide, short nanotag)”, the Kd in test [2] is 17 nM.

As for “Biotin mimicking peptide, sequence WSHPQFEK (SEQ ID NO: 39) [streptagII]”, the Kd in test [2] was 72000 nM.

In test [3], “signal dampening component (FKBP12-CD148)” showed a killing of BCMA+ SKOV3 target cells at the 72 hour time point (incucyte assay); rapamycin concentration above which killing was inhibited above 0.82 µM and a target cells surviving at 50 hours (incucyte assay), T cells co-expressing the CAR with a dampener, with rapamycin of 50%.

These data come from US20200188434A1, “A CELL COMPRISING A CHIMERIC ANTIGEN RECEPTOR (CAR)” (AUTOLUS LIMITED, priority 2017, published 2020).
